# Data: patent USRE49099 (Bayer, dated 2022)
# What was measured:
# [1] = target: T1, human activated protein C (human, UniProt P04070 43-197; P04070 212-461); assay: SPR (Biacore), 1:1 binding model
# T1 construct: also called human aPC; human APC
# cyno activated protein C [2] = target: T2, cyno activated protein C (cyno (monkey)); assay: SPR (Biacore), 1:1 binding model
# T2 construct: also called cyno aPC; cyno APC
# [3] = target: T1, human activated protein C; assay: ELISA, coated antigen
# human Protein C = target: T3, human Protein C (human, UniProt P04070 43-461); assay: ELISA, coated antigen
# T3 construct: Zymogen used as negative control in the ELISA; also called human PC; hPC
# cyno activated protein C [4] = target: T2, cyno activated protein C; assay: ELISA, coated antigen
Binder,Kd [1] [nM],koff [1] [s⁻¹],kon [1] [M⁻¹ s⁻¹],Kd (cyno activated protein C [2]) [nM],koff (cyno activated protein C [2]) [s⁻¹],kon (cyno activated protein C [2]) [M⁻¹ s⁻¹],EC50 [3] [nM],binding result (human Protein C),EC50 (cyno activated protein C [4]) [nM]
"Hu1573-12 (antibody, V domains shown, Humanized IgG, human gamma 1 / kappa constant regions by vectors pCP-hCg1 and pCP-hck; also called H1573VH.1E + H1573Vk.2) VH: EVQLVESGGGLVQPGGSLRLSCAASGFTFSNYYLNWVRQAPGKGLEWVADIRLKSNNYEKHYAESVKGRFTISRDDSKNSVYLQMNSLKTEDTAVYYCIREGDYFDYWGQGTTVTVSS VL: DIVMTQTPLSLSVTPGQPASISCRASESVDSFGATFMHWYLQKPGQPPQLLIYLASNLESGVPDRFSGSGSGTDFTLKISRVEAEDVGVYYCQQNNEDPYTFGQGTKLEIKR",6.03,0.00844,1.4e+06,16.1,0.0054,337000,0.339,no binding (tested: 20 nM),0.642
"Hu1573-3 (antibody, V domains shown, Humanized IgG, human gamma 1 / kappa constant regions by vectors pCP-hCg1 and pCP-hck; also called H1573VH.1B + H1573Vk.2) VH: EVQLVESGGGLVQPGGSLRLSCAASGFTFSNYYLNWVRQAPGKGLEWVGDIRLKSNNYEKHYAESVKGRFTISRDDSKNSVYLQMNSLKTEDTAVYYCIREGDYFDYWGQGTTVTVSS VL: DIVMTQTPLSLSVTPGQPASISCRASESVDSFGATFMHWYLQKPGQPPQLLIYLASNLESGVPDRFSGSGSGTDFTLKISRVEAEDVGVYYCQQNNEDPYTFGQGTKLEIKR",5.7,0.00818,1.44e+06,14.2,0.0105,743000,0.592,no binding (tested: 20 nM),0.872
"Hu1573-17 (antibody, V domains shown, Humanized IgG, human gamma 1 / kappa constant regions by vectors pCP-hCg1 and pCP-hck; also called H1573VH.1F + H1573Vk.2B) VH: EVQLVESGGGLVQPGGSLRLSCAASGFTFSNYYLNWVRQAPGKGLEWVADIRLKSNNYEKHYAESVKGRFTISRDDSKSSVYLQMNSLKTEDTAVYYCIREGDYFDYWGQGTTVTVSS VL: DIVMTQTPLSLSVTPGQPASISCRASESVDSFGATFMHWYLQKPGQPPQLLIYLASNLESGVPDRFSGSGSRTDFTLKISRVEAEDVGVYYCQQNNEDPYTFGQGTKLEIKR",5.75,0.00833,1.45e+06,15.6,0.0042,269000,0.627,no binding (tested: 20 nM),1.21
"Hu1573-9 (antibody, V domains shown, Humanized IgG, human gamma 1 / kappa constant regions by vectors pCP-hCg1 and pCP-hck; also called H1573VH.1D + H1573Vk.2) VH: EVQLVESGGGLVQPGGSLRLSCAASGFTFSNYYLNWVRQAPGKGLEWVGDIRLKSNNYEKHYAESVKGRFTISRDDSKSSLYLQMNSLKTEDTAVYYCIREGDYFDYWGQGTTVTVSS VL: DIVMTQTPLSLSVTPGQPASISCRASESVDSFGATFMHWYLQKPGQPPQLLIYLASNLESGVPDRFSGSGSGTDFTLKISRVEAEDVGVYYCQQNNEDPYTFGQGTKLEIKR",5.63,0.00815,1.45e+06,15.2,0.00724,475000,0.313,no binding (tested: 20 nM),0.986
"Hu1573-14 (antibody, V domains shown, Humanized IgG, human gamma 1 / kappa constant regions by vectors pCP-hCg1 and pCP-hck; also called H1573VH.1E + H1573Vk.2B) VH: EVQLVESGGGLVQPGGSLRLSCAASGFTFSNYYLNWVRQAPGKGLEWVADIRLKSNNYEKHYAESVKGRFTISRDDSKNSVYLQMNSLKTEDTAVYYCIREGDYFDYWGQGTTVTVSS VL: DIVMTQTPLSLSVTPGQPASISCRASESVDSFGATFMHWYLQKPGQPPQLLIYLASNLESGVPDRFSGSGSRTDFTLKISRVEAEDVGVYYCQQNNEDPYTFGQGTKLEIKR",6.13,0.00856,1.4e+06,17.6,0.00524,299000,0.225,no binding (tested: 20 nM),0.984
"Hu1573-13 (antibody, V domains shown, Humanized IgG, human gamma 1 / kappa constant regions by vectors pCP-hCg1 and pCP-hck; also called H1573VH.1E + H1573Vk.2A) VH: EVQLVESGGGLVQPGGSLRLSCAASGFTFSNYYLNWVRQAPGKGLEWVADIRLKSNNYEKHYAESVKGRFTISRDDSKNSVYLQMNSLKTEDTAVYYCIREGDYFDYWGQGTTVTVSS VL: DIVLTQTPLSLSVTPGQPASISCRASESVDSFGATFMHWYLQKPGQPPQLLIYLASNLESGVPDRFSGSGSGTDFTLKISRVEAEDVGVYYCQQNNEDPYTFGQGTKLEIKR",4.69,0.00655,1.4e+06,15,0.00343,229000,0.236,no binding (tested: 20 nM),0.804
"Hu1573-16 (antibody, V domains shown, Humanized IgG, human gamma 1 / kappa constant regions by vectors pCP-hCg1 and pCP-hck; also called H1573VH.1F + H1573Vk.2A) VH: EVQLVESGGGLVQPGGSLRLSCAASGFTFSNYYLNWVRQAPGKGLEWVADIRLKSNNYEKHYAESVKGRFTISRDDSKSSVYLQMNSLKTEDTAVYYCIREGDYFDYWGQGTTVTVSS VL: DIVLTQTPLSLSVTPGQPASISCRASESVDSFGATFMHWYLQKPGQPPQLLIYLASNLESGVPDRFSGSGSGTDFTLKISRVEAEDVGVYYCQQNNEDPYTFGQGTKLEIKR",4.52,0.00643,1.42e+06,15.8,0.00373,236000,0.233,no binding (tested: 20 nM),1.23
